PMC11665613 (2024)

Key:
Assay in all cases: MST
[1] = target: NCP3, nucleosome core particle with 3xFLAG-H3Kc36me3 (X. laevis | , Kc36me3 (trimethyllysine mimic on cysteine at position 36))
[2] = target: NCP2, nucleosome core particle with 3xFLAG-H3K36NleCTMS (X. laevis | , cysteine at position 36 alkylated with vinyl cyclic sulfonium 5 (NleCTMS))
[3] = target: NCP1, nucleosome core particle with 3xFLAG-H3K36NleCS+me2 (X. laevis | , cysteine at position 36 alkylated with vinyl dimethylsulfonium 4 (NleCS+me2))

Binder | Kd [1] | Kd [2] | Kd [3]
PWWP domain of LEDGF (domain or fragment) not shown | 1400 nM | 1200 nM | 520 nM
PWWP domain of NSD2 (domain or fragment) VGDLVWSKVSGYPWWPCMVSADPLLHSYTKLKGQKKSARQYHVQFFGDAPERAWIFEKSLVAFEG | 1400 nM | 1600 nM | 1100 nM
